The target in series [1] is T1, TbCBC-tetramer (TbCBP20-TbCBP110-TbCBP30-TbCBP66) (Trypanosoma brucei, UniProt Q585L4).
T1 construct: gene Tb06.28P18.1190; full-length subunits co-expressed in Hi5 insect cells (biGBac), HisTrap and heparin purified, tetramer 230 kDa
T1 sequence (Q585L4 1-187): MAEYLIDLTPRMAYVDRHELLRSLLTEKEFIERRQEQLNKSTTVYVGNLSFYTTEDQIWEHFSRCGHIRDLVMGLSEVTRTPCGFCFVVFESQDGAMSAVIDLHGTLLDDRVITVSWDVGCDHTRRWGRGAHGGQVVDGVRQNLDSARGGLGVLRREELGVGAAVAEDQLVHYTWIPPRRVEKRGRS
T1 sequence (Q38BU6 1-1004 partner): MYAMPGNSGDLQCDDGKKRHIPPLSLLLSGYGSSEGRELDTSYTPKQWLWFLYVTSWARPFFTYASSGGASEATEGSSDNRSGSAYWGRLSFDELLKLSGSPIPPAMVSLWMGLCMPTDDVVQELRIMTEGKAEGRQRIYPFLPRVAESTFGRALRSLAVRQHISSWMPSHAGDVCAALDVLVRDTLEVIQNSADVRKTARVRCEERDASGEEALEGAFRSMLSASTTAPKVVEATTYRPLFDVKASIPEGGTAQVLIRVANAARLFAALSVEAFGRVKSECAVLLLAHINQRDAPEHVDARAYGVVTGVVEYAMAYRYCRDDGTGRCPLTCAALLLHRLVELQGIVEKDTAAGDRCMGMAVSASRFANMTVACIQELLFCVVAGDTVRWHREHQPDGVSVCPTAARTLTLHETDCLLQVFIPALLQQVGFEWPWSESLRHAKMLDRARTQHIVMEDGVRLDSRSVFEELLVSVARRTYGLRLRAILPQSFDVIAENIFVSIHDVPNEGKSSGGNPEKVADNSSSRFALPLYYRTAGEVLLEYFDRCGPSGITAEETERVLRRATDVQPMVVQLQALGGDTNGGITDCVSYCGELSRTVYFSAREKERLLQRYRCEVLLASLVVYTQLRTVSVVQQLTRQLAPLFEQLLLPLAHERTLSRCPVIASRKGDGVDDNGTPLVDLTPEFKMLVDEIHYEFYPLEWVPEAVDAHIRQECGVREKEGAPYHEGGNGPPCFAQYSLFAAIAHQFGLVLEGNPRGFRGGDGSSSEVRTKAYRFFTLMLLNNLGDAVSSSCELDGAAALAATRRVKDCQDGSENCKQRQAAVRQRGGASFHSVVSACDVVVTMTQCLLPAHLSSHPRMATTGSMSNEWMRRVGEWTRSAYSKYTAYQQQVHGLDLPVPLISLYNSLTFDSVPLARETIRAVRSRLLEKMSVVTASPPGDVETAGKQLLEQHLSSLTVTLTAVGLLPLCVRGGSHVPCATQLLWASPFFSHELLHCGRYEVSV
T1 sequence (Q387Z0 1-270 partner): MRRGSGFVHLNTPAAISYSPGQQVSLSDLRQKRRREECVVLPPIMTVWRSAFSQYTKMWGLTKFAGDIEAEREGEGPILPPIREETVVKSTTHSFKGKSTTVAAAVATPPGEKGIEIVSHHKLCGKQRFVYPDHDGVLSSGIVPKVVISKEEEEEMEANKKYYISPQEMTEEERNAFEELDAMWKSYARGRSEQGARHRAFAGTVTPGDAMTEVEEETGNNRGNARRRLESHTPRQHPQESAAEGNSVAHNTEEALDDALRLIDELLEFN
In words: competition pull-down on immobilised γ-aminophenyl-m7GTP resin, SDS-PAGE. To be noted: pH 7.5, 200 mM NaCl, 5 mM MgCl2, 4 °C; competitive at the cap site. The format is binding.

Series [2] deals with T1, TbCBC-tetramer (TbCBP20-TbCBP110-TbCBP30-TbCBP66). In words: cryo-EM structure, […] Å. The format is binding. To be noted: 2-fold excess of ligand; m7GMP part resolved in the TbCBP20 cap pocket.
The subject of series [3] is TbCBP66* R348E (Trypanosoma brucei). In words: fluorescence polarization. To be noted: EMSA: 20 mM HEPES pH 7.5, 50 mM NaCl, 5 mM MgCl2, Tween (0.05% in RNA buffer), RNA stock 50 nM mixed 1:1, 30 min on ice, 6% native PAGE 4 C; FP: same buffer, 0. Background: Polarisation of emitted light reports the rotation of a fluorescent probe.
The test system of series [4] is TbCBP66* (Trypanosoma brucei). In words: EMSA. To be noted: EMSA: 20 mM HEPES pH 7.5, 50 mM NaCl, 5 mM MgCl2, Tween (0.05% in RNA buffer), RNA stock 50 nM mixed 1:1, 30 min on ice, 6% native PAGE 4 C; FP: same buffer, 0. (Mobility shift assays separate free from complexed probe on a gel.)
Series [5] has as its target TAMRA-labeled TbCBP30 peptide comprising residues R34-G60 (Trypanosoma brucei). In words: MST; 50 nM N-terminally TAMRA-labeled peptide mixed 1:1 with a serial dilution of TbCBC-dimer; 20 mM HEPES, 250 mM NaCl, 5 mM MgCl, 0.1 % Tween in the peptide buffer; 30 min on ice; Monolith NT.115; binding quantified from the ligand-dependent increase in the initial fluorescence; n = 3.

In the case of `C[n+]1cn([C@@H]2O[C@H](COP(=O)(O)OP(=O)(O)OP(=O)(O)O)[C@@H](O)[C@H]2O)c2nc(N)[nH]c(=O)c21` [m^7GTP], the “competition pull-down on immobilised γ-aminophenyl-m7GTP resin, SDS-PAGE” value in series [1] is recorded as “m^7GTP competed efficiently with cap4-SL RNA binding to TbCBC”.
`C[n+]1cn([C@@H]2O[C@H](COP(=O)(O)OP(=O)(O)OP(=O)(O)OC[C@H]3O[C@@H](n4cnc5c(N)ncnc54)[C@H](O)[C@@H]3O)[C@@H](O)[C@H]2O)c2nc(N)[nH]c(=O)c21` [m^7GpppA]: the “cryo-EM structure, 2.4 Å” value in series [2] is “The m^7GMP portion of the cap-analog is coordinated by TbCBP20”.
In the case of “AACUAACGCUAUUAUUAGAACAGUUUCUGUACUAUAUUG [OH-SLe 3'-6FAM (39 nt SL RNA exon, FP)]”, the Kd in series [3] was determined as 9810 nM.
“AUUAGAACAGUUUCUGUACUAUAUUG [SL-hairpin_loop (A14-G39)]” yielded a dissociation constant (Kd) in series [4] of 390 nM.
On to “TbCBC-dimer (TbCBP20-TbCBP110 dimer) (complex)”, for which the Kd in series [5] was 980 nM.

For orientation: Kd means the free concentration of one partner at which half of the binding sites on the other are occupied at equilibrium, for simple one-to-one binding. A low value points to higher affinity.
